Measured values as given in PMC2756588.

T1: Fus1, P11710
T1 sequence (P11710 432-512, looked up): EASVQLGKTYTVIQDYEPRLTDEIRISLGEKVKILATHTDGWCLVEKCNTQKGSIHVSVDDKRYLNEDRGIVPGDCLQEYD

T2: Sla1-3, P32790
T2 sequence (P32790 344-424, looked up): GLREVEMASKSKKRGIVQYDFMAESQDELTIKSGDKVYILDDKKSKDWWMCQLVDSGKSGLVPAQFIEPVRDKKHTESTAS

T3: Bzz1-2, P38822
T3 sequence (P38822 568-633, looked up): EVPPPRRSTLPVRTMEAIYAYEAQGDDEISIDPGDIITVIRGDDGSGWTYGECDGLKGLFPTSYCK

T4: Pex13, P80667
T4 sequence (P80667 295-386, looked up): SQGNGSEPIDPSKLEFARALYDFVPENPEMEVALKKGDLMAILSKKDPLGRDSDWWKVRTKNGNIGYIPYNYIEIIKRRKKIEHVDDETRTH

T5: Abp1, P15891
T5 sequence (P15891 535-592, looked up): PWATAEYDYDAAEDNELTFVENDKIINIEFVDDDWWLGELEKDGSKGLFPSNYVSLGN

T6: Lsb4, P32793
T6 sequence (P32793 402-468, looked up): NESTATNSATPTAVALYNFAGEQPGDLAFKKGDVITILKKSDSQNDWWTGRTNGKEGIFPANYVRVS

T7: Bbc1, P47068
T7 sequence (P47068 1-78, looked up): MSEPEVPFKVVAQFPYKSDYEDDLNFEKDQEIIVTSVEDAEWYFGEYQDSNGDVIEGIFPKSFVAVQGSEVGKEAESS

T8: Pin3, Q06449
T8 sequence (Q06449 53-122, looked up): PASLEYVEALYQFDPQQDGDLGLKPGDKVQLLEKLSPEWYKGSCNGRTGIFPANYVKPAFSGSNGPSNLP

T9: Lsb1, P53281
T9 sequence (P53281 45-122, looked up): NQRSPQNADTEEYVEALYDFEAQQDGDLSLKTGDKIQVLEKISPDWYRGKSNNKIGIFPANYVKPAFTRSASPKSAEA

T10: Hof1, Q05080
T10 sequence (Q05080 590-669, looked up): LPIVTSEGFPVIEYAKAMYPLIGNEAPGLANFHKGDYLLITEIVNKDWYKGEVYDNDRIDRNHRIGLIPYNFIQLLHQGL

T11: Hse1, P38753
T11 sequence (P38753 208-285, looked up): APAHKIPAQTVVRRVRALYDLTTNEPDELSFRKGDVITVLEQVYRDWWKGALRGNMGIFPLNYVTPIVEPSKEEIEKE

T12: Boi1, P38041
T12 sequence (P38041 1-86, looked up): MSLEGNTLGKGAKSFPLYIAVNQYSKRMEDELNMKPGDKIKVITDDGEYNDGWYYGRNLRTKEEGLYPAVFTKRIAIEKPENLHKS

T13: Sla1-2, P32790
T13 sequence (P32790 60-140, looked up): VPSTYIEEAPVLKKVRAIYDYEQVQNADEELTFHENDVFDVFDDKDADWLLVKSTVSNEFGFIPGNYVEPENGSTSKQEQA

T14: Bud14, P27637
T14 sequence (P27637 247-328, looked up): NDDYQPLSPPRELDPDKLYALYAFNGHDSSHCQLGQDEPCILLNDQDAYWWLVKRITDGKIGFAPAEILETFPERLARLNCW

T15: Nbp2, Q12163
T15 sequence (Q12163 103-180, looked up): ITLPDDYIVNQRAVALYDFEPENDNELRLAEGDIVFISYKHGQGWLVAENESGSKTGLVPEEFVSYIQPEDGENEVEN

T16: Boi2, P39969
T16 sequence (P39969 32-116, looked up): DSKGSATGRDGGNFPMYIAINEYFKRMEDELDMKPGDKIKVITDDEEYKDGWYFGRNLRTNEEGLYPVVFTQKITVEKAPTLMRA

T17: Cyk3, Q07533
T17 sequence (Q07533 1-83, looked up): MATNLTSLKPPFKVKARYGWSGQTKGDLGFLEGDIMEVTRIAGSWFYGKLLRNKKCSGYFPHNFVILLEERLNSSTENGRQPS

T18: Bzz1-1, P38822
T18 sequence (P38822 478-572, looked up): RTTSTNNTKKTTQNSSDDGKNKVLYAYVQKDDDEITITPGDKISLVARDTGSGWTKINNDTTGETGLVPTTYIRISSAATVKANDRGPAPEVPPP

T19: Myo5, Q04439
T19 sequence (Q04439 1072-1160, looked up): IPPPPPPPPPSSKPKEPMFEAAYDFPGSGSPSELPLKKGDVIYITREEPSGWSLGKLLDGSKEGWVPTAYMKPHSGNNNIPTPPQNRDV

T20: Cdc25, P04821
T20 sequence (P04821 50-136, looked up): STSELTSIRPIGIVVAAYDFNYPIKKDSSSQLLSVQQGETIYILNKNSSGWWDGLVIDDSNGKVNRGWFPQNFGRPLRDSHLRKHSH

T21: Lsb3, P43603
T21 sequence (P43603 385-451, looked up): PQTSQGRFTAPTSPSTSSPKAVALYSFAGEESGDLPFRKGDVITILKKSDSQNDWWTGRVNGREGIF


Legend:
Assay in all cases: SPOT array
Rvs167, P39743 = conditions: median of control spots 2707
Sequence of Rvs167, P39743 (P39743 419-482): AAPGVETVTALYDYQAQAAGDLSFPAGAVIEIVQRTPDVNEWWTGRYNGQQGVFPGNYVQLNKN

Bem1-1, P29366 = conditions: median of control spots 4282
Sequence of Bem1-1, P29366 (P29366 55-141): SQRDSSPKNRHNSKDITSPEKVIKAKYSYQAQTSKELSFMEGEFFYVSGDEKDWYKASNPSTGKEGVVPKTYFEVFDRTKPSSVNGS

Fus1, P11710 = biological target: T1, Fus1, P11710; conditions: median of control spots 1200
Sla1-3, P32790 = biological target: T2, Sla1-3, P32790; conditions: median of control spots 5475
Bzz1-2, P38822 = biological target: T3, Bzz1-2, P38822; conditions: median of control spots 4538
Pex13, P80667 = biological target: T4, Pex13, P80667; conditions: median of control spots 1341
Myo3, P36006 = conditions: median of control spots 468
Abp1, P15891 = biological target: T5, Abp1, P15891; conditions: median of control spots 935
Lsb4, P32793 = biological target: T6, Lsb4, P32793; conditions: median of control spots 397
Bbc1, P47068 = biological target: T7, Bbc1, P47068; conditions: median of control spots 796
Pin3, Q06449 = biological target: T8, Pin3, Q06449; conditions: median of control spots 2171
Lsb1, P53281 = biological target: T9, Lsb1, P53281; conditions: median of control spots 388
Hof1, Q05080 = biological target: T10, Hof1, Q05080; conditions: median of control spots 4086
Bem1-2, P29366 = conditions: median of control spots 4347
Sequence of Bem1-2, P29366 (P29366 139-227): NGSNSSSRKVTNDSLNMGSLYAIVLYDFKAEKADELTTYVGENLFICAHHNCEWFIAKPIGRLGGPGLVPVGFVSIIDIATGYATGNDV

Hse1, P38753 = biological target: T11, Hse1, P38753; conditions: median of control spots 1727
Boi1, P38041 = biological target: T12, Boi1, P38041; conditions: median of control spots 1162
Sla1-2, P32790 = biological target: T13, Sla1-2, P32790; conditions: median of control spots 712
Bud14, P27637 = biological target: T14, Bud14, P27637; conditions: median of control spots 956
Nbp2, Q12163 = biological target: T15, Nbp2, Q12163; conditions: median of control spots 357
GST = conditions: median of control spots 978
Boi2, P39969 = biological target: T16, Boi2, P39969; conditions: median of control spots 1161
Cyk3, Q07533 = biological target: T17, Cyk3, Q07533; conditions: median of control spots 1451
Bzz1-1, P38822 = biological target: T18, Bzz1-1, P38822; conditions: median of control spots 4446
Sho1, P40073 = conditions: median of control spots 1148
Sequence of Sho1, P40073 (P40073 287-367): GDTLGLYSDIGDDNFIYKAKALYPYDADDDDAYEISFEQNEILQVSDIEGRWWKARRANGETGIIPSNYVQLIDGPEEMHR

Myo5, Q04439 = biological target: T19, Myo5, Q04439; conditions: median of control spots 471
Cdc25, P04821 = biological target: T20, Cdc25, P04821; conditions: median of control spots 969
Lsb3, P43603 = biological target: T21, Lsb3, P43603; conditions: median of control spots 406

Binder	SPOT intensity (Rvs167, P39743)	SPOT intensity (Bem1-1, P29366)	SPOT intensity (Fus1, P11710)	SPOT intensity (Sla1-3, P32790)	SPOT intensity (Bzz1-2, P38822)	SPOT intensity (Pex13, P80667)	SPOT intensity (Myo3, P36006)	SPOT intensity (Abp1, P15891)	SPOT intensity (Lsb4, P32793)	SPOT intensity (Bbc1, P47068)	SPOT intensity (Pin3, Q06449)	SPOT intensity (Lsb1, P53281)	SPOT intensity (Hof1, Q05080)	SPOT intensity (Bem1-2, P29366)	SPOT intensity (Hse1, P38753)	SPOT intensity (Boi1, P38041)	SPOT intensity (Sla1-2, P32790)	SPOT intensity (Bud14, P27637)	SPOT intensity (Nbp2, Q12163)	SPOT intensity (GST)	other results
KKAPPPVVKPKPRNF	1	0	1	0	360	4	0	899	0	2	1	4	10	0	0	0	2	3	0	3	SPOT intensity (Boi2, P39969): 3; SPOT intensity (Cyk3, Q07533): 5; SPOT intensity (Bzz1-1, P38822): 10; SPOT intensity (Sho1, P40073): 21; SPOT intensity (Myo5, Q04439): 0; SPOT intensity (Cdc25, P04821): 15; SPOT intensity (Lsb3, P43603): 0
TSFKGRPKPPKTLKH	0	0	1	2	11	3	0	128	0	5	4	0	1	0	2	1	0	1	0	0	SPOT intensity (Boi2, P39969): 0; SPOT intensity (Cyk3, Q07533): 2; SPOT intensity (Bzz1-1, P38822): 0; SPOT intensity (Sho1, P40073): 43; SPOT intensity (Myo5, Q04439): 0; SPOT intensity (Cdc25, P04821): 2; SPOT intensity (Lsb3, P43603): 0
QNTPPLPPKPKSPHL	8	0	0	0	2	309	0	16	231	0	0	0	1320	16	634	3	1	0	1	2	SPOT intensity (Boi2, P39969): 0; SPOT intensity (Cyk3, Q07533): 0; SPOT intensity (Bzz1-1, P38822): 0; SPOT intensity (Sho1, P40073): 72; SPOT intensity (Myo5, Q04439): 0; SPOT intensity (Cdc25, P04821): 0; SPOT intensity (Lsb3, P43603): 249

Continued, in another order:

SPOT intensity (Rvs167, P39743)	SPOT intensity (Bem1-1, P29366)	SPOT intensity (Fus1, P11710)	SPOT intensity (Sla1-3, P32790)	SPOT intensity (Bzz1-2, P38822)	SPOT intensity (Pex13, P80667)	SPOT intensity (Myo3, P36006)	SPOT intensity (Abp1, P15891)	SPOT intensity (Lsb4, P32793)	SPOT intensity (Bbc1, P47068)	SPOT intensity (Pin3, Q06449)	SPOT intensity (Lsb1, P53281)	SPOT intensity (Hof1, Q05080)	SPOT intensity (Bem1-2, P29366)	SPOT intensity (Hse1, P38753)	SPOT intensity (Boi1, P38041)	SPOT intensity (Sla1-2, P32790)	SPOT intensity (Bud14, P27637)	SPOT intensity (Nbp2, Q12163)	SPOT intensity (GST)	Binder	other results
148	6	12	21	16	40	50	345	162	37	20	10	8	50	19	4	21	13	44	2	SKIRPTPRKPSRMAT	SPOT intensity (Boi2, P39969): 3; SPOT intensity (Cyk3, Q07533): 6; SPOT intensity (Bzz1-1, P38822): 6; SPOT intensity (Sho1, P40073): 177; SPOT intensity (Myo5, Q04439): 23; SPOT intensity (Cdc25, P04821): 35; SPOT intensity (Lsb3, P43603): 124
3540	8	1	7	3	467	69	0	748	3	0	463	16	13	4	4	0	0	0	1	SSSSSPPPLPTRRDH	SPOT intensity (Boi2, P39969): 4; SPOT intensity (Cyk3, Q07533): 1; SPOT intensity (Bzz1-1, P38822): 6; SPOT intensity (Sho1, P40073): 0; SPOT intensity (Myo5, Q04439): 19; SPOT intensity (Cdc25, P04821): 15; SPOT intensity (Lsb3, P43603): 485
1540	3	2	1	1	249	12	182	1180	79	20	56	0	18	2	3	8	8	2	1	ATKSASPTLPTRRSR	SPOT intensity (Boi2, P39969): 0; SPOT intensity (Cyk3, Q07533): 1; SPOT intensity (Bzz1-1, P38822): 3; SPOT intensity (Sho1, P40073): 132; SPOT intensity (Myo5, Q04439): 0; SPOT intensity (Cdc25, P04821): 22; SPOT intensity (Lsb3, P43603): 834
